From PMC3072105 (Nature Communications, 2011) come the findings set out here.

The target in assay [1] is full-length KvAP-T225C (Aeropyrum pernix). The experiment in a line: cross-linking.
For assay [2], the target named is T1, KvAP channel from Aeropyrum pernix, wild type (Aeropyrum pernix, UniProt Q9YDF8 14-295).
T1 sequence (looked up): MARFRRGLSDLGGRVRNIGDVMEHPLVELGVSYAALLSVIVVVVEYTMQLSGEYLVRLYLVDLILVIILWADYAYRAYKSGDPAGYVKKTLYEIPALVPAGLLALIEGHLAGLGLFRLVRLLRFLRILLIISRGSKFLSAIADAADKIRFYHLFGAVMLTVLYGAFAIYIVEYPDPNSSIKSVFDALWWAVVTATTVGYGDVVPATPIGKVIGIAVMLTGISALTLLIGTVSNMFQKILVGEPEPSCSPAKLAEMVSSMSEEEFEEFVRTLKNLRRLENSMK
Kind of assay: electrophysiology.

As usually defined, the stoichiometry N is a count of units in the complex or per binding partner. In turn, “full-length KvAP-T225C (natural protein)” yielded a stoichiometry N in assay [1] of 4.

B1: synthetic φD peptide (peptide)
peptide: GNHAEIYSNHHMMSHVGGGR
For orientation: Kd means the equilibrium constant for the complex coming apart. High values mean a looser complex, low ones a tighter complex. Molecule B1 registered an equilibrium dissociation constant (Kd) in assay [2] of 21.2 ± 3.5 µM.
